In article PMC2845083:

Biological target: 6xHis-hKNL1 fragment (amino acids 1-86), Ser-Asp phospho-mimetic mutations in the SILK and RVSF motifs (human) (UniProt Q8NG31)
Experiment: pull-down

reduction of binding against wild type: > 70%
Substance: recombinant hPP1γ (protein phosphatase 1 gamma catalytic subunit) (from UniProt P36873 1-323) (enzyme)
